Assay results reported in paper PMC7794362, “Structural basis for distinct inflammasome complex assembly by human NLRP1 and CARD8” (Nature Communications, 2021).
Blank lines part the entries; values can stand above or below the binder they belong to.

B3: CASP1-CARD-SNAP (domain or fragment, human, UniProt P29466 1-92, looked up)
chain: MADKVLKEKRKLFIRSMGEGTINGLLDELLQTRVLNKEEMEKVKRENATVMDKTRALIDSVIPKGAQACQICITYICEEDSYLAGTLGLSAD
modifications: Alexa Fluor 647 (BG-Alexa dye) on the SNAP tag in the native gel assay
notes: CARD domain of human caspase-1, residues 1-92; A 3C protease site lies between the CARD and the SNAP tag; also called SNAP-tagged CASP1-CARD; fluorescently labeled CASP1-CARD; not shown: SNAP, C-terminal, kept

Columns and labels:
[1] = molecular target: the molecule itself; test: cryo-EM structure; helical reconstruction of CARD filaments; ~2 mg/ml on Quantifoil R1.2/1.3 grids, Titan Krios 300 kV, RELION 3.0
[2] = molecular target: the molecule itself; test: negative stain EM; recombinant NLRP1 constructs at various concentrations (Fig. 1e, f); samples below ~200 uM; NLRP1-CARD alone or with FIIND^UPA at 1:1 molar ratio
[3] = molecular target: T1, NLRC4-CARD without SNAP (filament seed) (human, UniProt Q9NPP4 1-102); test: native gel or EMSA; in vitro oligomerization assay: Alexa Fluor 647-labelled monomeric SNAP-ASC-CARD or CASP1-CARD-SNAP (10 uM) mixed with 20 or 5 uM seed oligomer for 15 min at room temperature; Bis-Tris native PAGE, fluorescence scan; settings: both partners purified
T1 construct: CARD domain of human NLRC4, residues 1-102, construct without SNAP tag; source: E. coli BL21(DE3), purified (Ni-NTA, SEC), oligomeric seed fraction
T1 sequence (looked up): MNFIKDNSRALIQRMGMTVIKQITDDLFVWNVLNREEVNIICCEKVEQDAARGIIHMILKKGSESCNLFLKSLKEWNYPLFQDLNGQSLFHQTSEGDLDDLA

[4] = molecular target: the molecule itself; test: as above
[5] = molecular target: B3; test: as above; settings: both partners purified

B1: NLRC4-CARD filament (SNAP tag cleaved off), solved by cryo-EM (domain or fragment, human, UniProt Q9NPP4 1-102, looked up)
chain: MNFIKDNSRALIQRMGMTVIKQITDDLFVWNVLNREEVNIICCEKVEQDAARGIIHMILKKGSESCNLFLKSLKEWNYPLFQDLNGQSLFHQTSEGDLDDLA
notes: CARD domain of human NLRC4, residues 1-102; also called NLRC4-CARD thin filament; source: E. coli BL21(DE3), purified; filaments grown from SNAP-tagged monomer with seeds, SNAP cleaved by 3C protease, Superose 6; not shown: SNAP, C-terminal, cleaved
binding result [1]: binds

B2: recombinant NLRP1-FIIND^UPA-CARD (a.a. 1213-1473), bacteria-derived (domain or fragment, human, UniProt Q9C000 1213-1473, looked up)
chain: SPLGVLLKMIHNALRFIPVTSVVLLYHRVHPEEVTFHLYLIPSDCSIRKAIDDLEMKFQFVRIHKPPPLTPLYMGCRYTVSGSGSGMLEILPKELELCYRSPGEDQLFSEFYVGHLGSGIRLQVKDKKDETLVWEALVKPGDLMPATTLIPPARIAVPSPLDAPQLLHFVDQYREQLIARVTSVEVVLDKLHGQVLSQEQYERVLAENTRPSQMRKLFSLSQSWDRKCKDGLYQALKETHPHLIMELWEKGSKKGLLPLSS
notes: C-terminal auto-cleavage fragment (FIIND^UPA-CARD) of human NLRP1, a.a; 1213-1473; also called NLRP1-FIIND^UPA-CARD filaments; SNAP-NLRP1-FIIND^UPA-CARD
fold lower concentration requirement for oligomerization, against NLRP1-CARD [2]: ≥ 50 fold

Binder: B3
binding result [3]: binds
binding result [4]: binds

B4: recombinant NLRP1-CARD (filament solved by cryo-EM) (domain or fragment, human, UniProt Q9C000 1374-1466, looked up)
chain: DAPQLLHFVDQYREQLIARVTSVEVVLDKLHGQVLSQEQYERVLAENTRPSQMRKLFSLSQSWDRKCKDGLYQALKETHPHLIMELWEKGSKK
notes: CARD domain of human NLRP1, construct 1374-1466; the results say that trimming of the last eight a.a; (1466-1473) stabilised the homogeneous single filament; two CARD constructs (1374-1466, 1374-1473) were cloned; also called NLRP1-CARD core filament; source: E. coli BL21(DE3), purified (Ni-NTA, SEC), concentrated to ~400 uM
binding result [1]: binds

binding result [5]: binds
B5: recombinant CARD8-CARD (451-537) (domain or fragment, human, UniProt Q9Y2G2-5 451-537, looked up)
chain: AAFVKENHRQLQARMGDLKGVLDDLQDNEVLTENEKELVEQEKTRQSKNEALLSMVEKKGDLALDVLFRSISERDPYLVSYLRQQNL
notes: CARD domain of human CARD8, residues 451-537; the numbers fit the 537-residue isoform; Called 'untagged' in the seeding experiment, there meaning without the SNAP tag; also called CARD8-CARD filaments; CARD8-CARD without SNAP; source: E. coli BL21(DE3), purified (Ni-NTA, SEC)
binding result [1]: binds
